Test results reported in patent US20240132622A1 (Bristol-Myers Squibb, published 2024).
Each block holds one binder with its values, some of them ahead of it.

How the values were obtained:
recombinant human PAD4 [1] = target: T1, recombinant human PAD4 (human, UniProt Q9UM07 1-663); experiment: cell-based or functional assay
recombinant human PAD4 [2] = target: T1, recombinant human PAD4; experiment: cell-based or functional assay; remark: listed apart in the source
recombinant human PAD4 [3] = target: T1, recombinant human PAD4; experiment: SPR 37 C, captured antibody, PAD4 analyte, 2 mM CaCl2
Method: (§1) For SPR measurements, either an anti-human capture surface or Protein A surface (Cytiva catalog #29127555) was used. Anti-human capture surface was prepared by immobilizing anti-human capture antibody (Cytiva catalog #29234600) onto flow cells of a CM5 or CM4 biosensor following the manufacturer's amine coupling protocol (Cytiva catalog #BR-1006-33). SPR experiments were conducted at 37° C. using HBS-P (150 mM NaCl, 10 mM HEPES, pH 7.6, 0.05% Tween-20) (TEKNOVA catalog #H8032) with additional 150 mM NaCl and 1 mM or 2 mM CaCl₂) (see Table 2) or 2 mM EDTA (see Table 3) as running buffer. Antibodies were diluted to 1.5 μg/mL in the running buffer, and were captured across active biosensor flow cells at 10 μL/min for 15 to 30 seconds. […] The association and dissociation of the antibodies with PAD4 were measured. One 30 second injection followed by one 15 second injection of 10 mM glycine pH 1.5 was used to regenerate the Protein A capture surface between assay cycles. For anti-human capture surface, two 30 second injections of 3 M MgCl₂ was used for regeneration. SPR measurements for mAb20 and mAb 13 SPR were done in the presence of 2 mM CaCl₂). The remaining antibodies were tested in the presence of 1 mM CaCl₂).
Rate constants kₒₙ and koff were derived from reference flow cell- and 0 nM blank-subtracted sensorgrams, and were fit to a 1:1 binding model in Biacore® Insight Evaluation software version 3.0.12.15655. Deviations from 1:1 binding model were observed, which may be caused by increased dimerization of PAD4 at higher concentrations. The equilibrium dissociation constant, KD, was calculated as the ratio of rate constants koff/kₒₙ for each PAD4 antibody. For those antibodies that were tested in multiple SPR experiments, the average value and standard deviation from two or three separate experiments are listed in Tables 2 and 3.

[4] = target: T2, recombinant human GST-PAD4 fusion protein (human, UniProt Q9UM07 1-663); experiment: BLI (BLITZ), GST-PAD4 on anti-GST biosensor
T2 construct: not shown: GST tag
Method: Affinity testing methods. Affinity of each antibody clone for a GST-PAD4 fusion protein was determined by Biolayer Interferometry (BLI) using a BLITZ instrument (Forte Bio, Menlo Park, California), using a biosensor chip (Anti-GST chip, Forte Bio, Cat. No. 18-5096). The biosensor was treated with citrate buffer, PBS, or PBS/Ca for 15 seconds; recombinant human GST-PAD4 was added on a drop holder for 80 seconds to prime the biosensor with PAD4; antibody was then added on the drop holder for 80 seconds to allow binding between antibody and the PAD4; PBS/PBS-Ca was added on the drop holder for 60 seconds to remove unbound antibody. The association rate constants, kₒₙ, dissociation rate constants, koff, and equilibrium dissociation constants, KD, were determined using BLITZ Pro Software, version 1.2.0.49.

N-His-TVMV-PAD4 = target: T3, N-His-TVMV-PAD4 (human, UniProt Q9UM07 1-663); experiment: complex purified by size exclusion chromatography; cryo-EM
T3 construct: E. coli expressed; used for the cryo-EM complex with clone 13 Fab, seen as a 2:2 assembly; also called Human PAD4 (1-663); full-length PAD4 construct with cleavable N-terminal his tag
T3 chain: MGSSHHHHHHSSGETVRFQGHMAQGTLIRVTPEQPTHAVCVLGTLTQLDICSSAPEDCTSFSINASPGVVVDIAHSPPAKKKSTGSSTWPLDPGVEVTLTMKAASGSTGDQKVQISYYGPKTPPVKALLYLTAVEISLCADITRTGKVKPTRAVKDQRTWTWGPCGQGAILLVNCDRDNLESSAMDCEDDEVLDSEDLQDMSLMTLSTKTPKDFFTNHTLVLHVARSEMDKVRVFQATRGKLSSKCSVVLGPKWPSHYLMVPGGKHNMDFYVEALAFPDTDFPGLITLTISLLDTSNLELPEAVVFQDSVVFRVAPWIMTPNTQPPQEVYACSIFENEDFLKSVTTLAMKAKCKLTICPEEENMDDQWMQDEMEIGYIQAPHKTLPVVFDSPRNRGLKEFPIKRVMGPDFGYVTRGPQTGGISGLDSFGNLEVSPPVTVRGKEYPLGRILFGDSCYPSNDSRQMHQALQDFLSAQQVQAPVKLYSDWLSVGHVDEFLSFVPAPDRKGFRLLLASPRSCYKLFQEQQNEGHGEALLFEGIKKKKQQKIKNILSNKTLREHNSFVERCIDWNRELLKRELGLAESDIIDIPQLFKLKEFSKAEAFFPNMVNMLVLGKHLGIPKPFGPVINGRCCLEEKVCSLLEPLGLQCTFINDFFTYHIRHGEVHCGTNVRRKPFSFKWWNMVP

recombinant human PAD4 [5] = target: T1, recombinant human PAD4; experiment: SPR 37 C, captured antibody, PAD4 analyte, 2 mM EDTA
[6] = target: extracellular matrix (ECM) proteins; experiment: ECM plate ELISA (Matrigel), 1 uM antibody, A450 over wells without sample
recombinant human PAD4 [7] = target: T1, recombinant human PAD4; experiment: SPR 37 C, captured antibody, PAD4 analyte, 1 mM CaCl2; 1 mM CaCl2, 37 C; mean of two or three experiments
Method: as §1, with “SPR measurements for mAb20 and mAb 13 SPR were done in the presence of 2 mM CaCl₂). The remaining antibodies were tested in the presence of 1 mM CaCl₂).” left out
(§2) Rate constants kₒₙ and koff were derived from reference flow cell- and 0 nM blank-subtracted sensorgrams, and were fit to a 1:1 binding model in Biacore® Insight Evaluation software version 3.0.12.15655. […] The equilibrium dissociation constant, KD, was calculated as the ratio of rate constants koff/kₒₙ for each PAD4 antibody. […]

recombinant human PAD4 [8] = target: T1, recombinant human PAD4; experiment: SPR 37 C, captured antibody, PAD4 analyte, 1 mM CaCl2
mouse PAD4 [9] = target: T4, mouse PAD4 (mouse, UniProt Q9Z183 1-666); experiment: cell-based or functional assay
mouse PAD4 [10] = target: T4, mouse PAD4; experiment: SPR 37 C, antibody on anti-murine capture surface, PAD4 analyte, 2 mM CaCl2
Method: SPR Methods. In general, SPR methods were as described in Example 3 above with the following modifications. An anti-murine capture surface was used that was prepared by immobilizing anti-murine capture antibody (Cytiva catalog #BR100838) onto flow cells of a CM5 biosensor following the manufacturer's amine coupling protocol (Cytiva catalog #BR-1006-33). SPR experiments were conducted at 37° C. using HBS-P (150 mM NaCl, 10 mM HEPES, pH 7.6, 0.05% Tween-20) (TEKNOVA catalog #H8032) with additional 500 mM NaCl and 2 mM CaCl₂) as running buffer. Several concentrations of PAD4, from 0.8 nM to 150 nM were prepared using the running buffer. The association and dissociation of the antibodies with PAD4 were measured. Two 90 second injections of 10 mM glycine pH 1.7 was used to regenerate the anti-murine capture surface.

recombinant human PAD4 [11] = target: T1, recombinant human PAD4; experiment: SPR 37 C, captured antibody, PAD4 analyte, 2 mM CaCl2; biphasic response, approximate KD; 2 mM CaCl2, 37 C; biphasic response
Method: as §1, with “SPR measurements for mAb20 and mAb 13 SPR were done in the presence of 2 mM CaCl₂). The remaining antibodies were tested in the presence of 1 mM CaCl₂).” left out
as §2

recombinant human PAD4 [12] = target: T1, recombinant human PAD4; experiment: cell-based or functional assay; remark: listed apart in the source

T1 sequence (Q9UM07 whole entry): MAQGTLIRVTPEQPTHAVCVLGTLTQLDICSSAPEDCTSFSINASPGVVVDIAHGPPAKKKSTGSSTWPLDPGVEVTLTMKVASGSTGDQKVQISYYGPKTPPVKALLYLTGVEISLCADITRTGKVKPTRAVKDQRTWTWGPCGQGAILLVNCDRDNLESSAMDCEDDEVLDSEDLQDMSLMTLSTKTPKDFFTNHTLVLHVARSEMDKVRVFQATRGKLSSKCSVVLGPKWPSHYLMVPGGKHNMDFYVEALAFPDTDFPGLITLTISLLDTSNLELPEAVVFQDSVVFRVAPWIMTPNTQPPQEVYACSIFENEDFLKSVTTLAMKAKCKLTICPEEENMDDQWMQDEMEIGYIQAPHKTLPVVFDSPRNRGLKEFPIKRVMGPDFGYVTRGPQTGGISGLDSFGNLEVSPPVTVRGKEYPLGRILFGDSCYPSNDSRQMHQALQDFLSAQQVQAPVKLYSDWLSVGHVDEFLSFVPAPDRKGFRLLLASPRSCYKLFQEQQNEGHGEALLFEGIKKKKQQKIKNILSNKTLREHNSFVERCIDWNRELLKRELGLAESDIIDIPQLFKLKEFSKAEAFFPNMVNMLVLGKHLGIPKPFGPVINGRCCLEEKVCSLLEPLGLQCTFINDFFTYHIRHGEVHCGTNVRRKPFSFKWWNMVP
T4 sequence (Q9Z183 whole entry): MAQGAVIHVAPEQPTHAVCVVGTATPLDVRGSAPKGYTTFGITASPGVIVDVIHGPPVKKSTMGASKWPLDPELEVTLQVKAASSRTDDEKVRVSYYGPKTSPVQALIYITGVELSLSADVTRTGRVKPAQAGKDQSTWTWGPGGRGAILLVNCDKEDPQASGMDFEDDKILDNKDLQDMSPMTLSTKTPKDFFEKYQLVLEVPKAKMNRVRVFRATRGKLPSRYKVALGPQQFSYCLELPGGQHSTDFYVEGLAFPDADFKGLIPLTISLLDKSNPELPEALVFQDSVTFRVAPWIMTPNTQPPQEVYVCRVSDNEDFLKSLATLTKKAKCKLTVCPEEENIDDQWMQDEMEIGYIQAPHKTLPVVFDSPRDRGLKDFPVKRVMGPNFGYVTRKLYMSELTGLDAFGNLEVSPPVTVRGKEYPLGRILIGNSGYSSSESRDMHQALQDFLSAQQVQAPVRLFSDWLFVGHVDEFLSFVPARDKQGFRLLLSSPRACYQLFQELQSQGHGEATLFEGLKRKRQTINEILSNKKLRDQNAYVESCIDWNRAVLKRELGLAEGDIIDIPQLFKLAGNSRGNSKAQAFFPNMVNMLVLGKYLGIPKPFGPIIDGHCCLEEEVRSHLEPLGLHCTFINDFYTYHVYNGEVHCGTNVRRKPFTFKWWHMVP

IC50 (average), PAD4 citrullination of peptide …, RapidFire MS (recombinant human PAD4 [2]): 77 nM | Kd (recombinant human PAD4 [5]): 2.6 nM | koff (recombinant human PAD4 [5]): 0.00054 s⁻¹ | kon (recombinant human PAD4 [5]): 220000 M⁻¹ s⁻¹ | ECM Score (1 µM) [6]: 1 | kon (recombinant human PAD4 [7]): 550000 M⁻¹ s⁻¹ | Kd (recombinant human PAD4 [8]): 2.7 nM | koff (recombinant human PAD4 [8]): 0.00089 s⁻¹
B3: hz20-1 (antibody, V domains shown)
VH: QVQLVQSGAEVKKPGASVKVSCKASGYTFTNYGISWVRQAPGQGLEWMGEIYPRSGNTYHNEKFKDRVTMTRDTSTSTVYMELSSLRSEDTAVYYCARSMITTRYWYFDVWGKGTTVTVSS
VL: DIVMTQSPDSLAVSLGERATINCRASESVDTYGNSFMHWYQQKPGQPPKLLIYLASNLESGVPDRFSGSGSGTDFTLTISSLQAEDVAVYYCQQNNEDPLTFGAGTKLELK
notes: light constant region not tied to this antibody

IC50, mPAD4 citrullination of peptide …, RapidFire MS, 50 nM mPAD4 (mouse PAD4 [9]): 13.2 nM | Kd (mouse PAD4 [10]): 0.7 nM | koff (mouse PAD4 [10]): 0.0002 s⁻¹ | kon (mouse PAD4 [10]): 290000 M⁻¹ s⁻¹
B4: mumAb (antibody, mouse IgG1, kappa, V domains shown)
VH: EVQLQQPGAELVKPGASVKLSCKASDHTFTTYWIHWVKQRPGRGLEWIGRIGPNSGGSKYNEKFRTKATLTVDKPSSTAYMQLSSLKSEDSAVYFCAFSNYLDYLDYWGQGTTLTVSS
VL: DIVLTQSPASLAVSLGQRATISCKASQSVDHDGEGYMNWYQQKPGQPPKLLIYAASNLESGIPARFSGSGSGTDFTLNIHPVEEEDAATYYCQQINEDPYTFGGGTKLEIKR
notes: Formatted as mIgG1-D265A; also called anti-murine PAD4 mAb; mouse anti-mPAD4 mumAb antibody

Second part, the binder before the results:

B1: clone 13 (mAb13) (antibody, V domains shown)
VH: EVLLQQSGAELVKPGASVRLSCTSSDFNIKDHFIHWVKQRTEQGLEWIGRIDPEDDETKYAPKFQDKVTITADTSSNTAYLQLSSLTSEDTAVFYCAGYGNYEGAMDYWGQGTSVTVSS
VL: DIVLTQSPTSLGVSPGQRATLSCRASENVNNYGIGFMNWFQQKPGQPPKLLIYAASRRGSGVPARFSGSGSGTDFSLNIHPMEEDDTAMYFCQQSKEVPYTFGGGTNLEIR
notes: Murine anti-human PAD4 antibody; also called murine anti-human clone 13 antibody
IC50 of inhibition of PAD4 activity (% Activity against [AB Clone 13] nM) (recombinant human PAD4 [1]): 10.1 nM | IC50 (average), PAD4 citrullination of peptide …, RapidFire MS (recombinant human PAD4 [2]): 30 nM | Kd (recombinant human PAD4 [3]): 3.2 nM | koff (recombinant human PAD4 [3]): 0.0011 s⁻¹ | kon (recombinant human PAD4 [3]): 350000 M⁻¹ s⁻¹ | Kd [4]: < 0.0244 nM | koff [4]: < 1e-06 s⁻¹ | kon [4]: 41100 M⁻¹ s⁻¹

B2: clone 13 Fab (Fab, V domains shown)
VH: EVLLQQSGAELVKPGASVRLSCTSSDFNIKDHFIHWVKQRTEQGLEWIGRIDPEDDETKYAPKFQDKVTITADTSSNTAYLQLSSLTSEDTAVFYCAGYGNYEGAMDYWGQGTSVTVSS
VL: DIVLTQSPTSLGVSPGQRATLSCRASENVNNYGIGFMNWFQQKPGQPPKLLIYAASRRGSGVPARFSGSGSGTDFSLNIHPMEEDDTAMYFCQQSKEVPYTFGGGTNLEIRR
notes: Heavy chain fragment with C-terminal His-tag; murine constant regions; also called Fab of clone 13; Fab13
binding result (N-His-TVMV-PAD4): binds

B5: clone 20 (mAb20) (antibody, V domains shown)
VH: QVQLQQSGAELARPGASVKLSCKATGYTFTNYGISWVKQRTGQGLEWIGEIYPRSGNTYHNEKFKDKATLTADKSSSTAYMEFRSLTSEDSAVYFCARSMITTRYWYFDVWGKGTTVTVSS
VL: NIVLTQSPASLAVSLGQRATLSCRASESVDTYGNSFMHWYQQKPGQPPKLLIYLASNLESGVPARFSGSGSRTDFTLTIDPVEADDAATYYCQQNNEDPLTFGAGTKLELK
notes: Murine anti-human PAD4 antibody; also called murine anti-human clone 20 antibody
IC50 (average), PAD4 citrullination of peptide …, RapidFire MS (recombinant human PAD4 [2]): 104 nM | koff (recombinant human PAD4 [3]): 0.0062 s⁻¹ | kon (recombinant human PAD4 [3]): 43000 M⁻¹ s⁻¹ | Kd [4]: < 1.71 nM | koff [4]: < 1e-06 s⁻¹ | kon [4]: 583 M⁻¹ s⁻¹ | Kd (recombinant human PAD4 [11]): ~150 nM | IC50 of inhibition of PAD4 activity (% Activity against [AB Clone 20] nM) (recombinant human PAD4 [12]): 39.6 nM
